Experimental findings from US20250215058A1 (CHILDREN S MEDICAL CENTER, published 2025) are described below.

Test [1] concerns the target GST-Epx3 (E. faecalis, UniProt P08515 1-218 = GST). Briefly: GST pull-down from lysates of transfected HEK293 cells, anti-FLAG immunoblot.
Test [2] deals with GST-Epx2 (E. faecium, UniProt P08515 1-218 = GST). The test is described as above.
Chain of GST-Epx2 (P08515 1-218, tags or fused parts left off): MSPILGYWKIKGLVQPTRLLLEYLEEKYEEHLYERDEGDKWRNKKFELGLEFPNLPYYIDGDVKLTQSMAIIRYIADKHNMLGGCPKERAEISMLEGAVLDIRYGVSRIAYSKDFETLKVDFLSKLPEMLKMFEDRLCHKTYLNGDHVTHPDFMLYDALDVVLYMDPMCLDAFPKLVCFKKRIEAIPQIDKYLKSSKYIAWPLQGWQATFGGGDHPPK

Chain of GST-Epx3 (P08515 1-218, tags or fused parts left off): as above

B1: HLA-C (full length, FLAG-tagged, expressed in HEK293 cells) (receptor)
MHC heavy: CSHSMRYFDTAVSRPGRGEPRFISVGYVDDTQFVRFDSDAASPRGEPRAPWVEQEGPEYWDRETQKYKRQAQADRVSLRNLRGYYNQSEDGSHTLQRMSGCDLGPDGRLLRGYDQSAYDGKDYIALNEDLRSWTAADTAAQITQRKLEAARAAEQLRAYLEGTCVEWLRRYLENGKETLQRAEPPKTHVTHHPLSDHEATLRCWALGFYPAEITLTWQRDGEDQTQDTELVETRPAGDGTFQKWAAVVVPSGQEQRYTCHMQHEGLQEPLTLSWEPSSQPTIPIMGIVAGLAVLVVLAVLGAVVTAMMCRRKSSGGKGGSCSQAACSNSAQGSDESLITCKAEFGSGSGS
notes: also called HLA-C alone; not shown: triple-FLAG tag
Take B1: the binding result in test [1] and in test [2] was “no binding” throughout.

B2: HLA-B (full length, FLAG-tagged, expressed in HEK293 cells) (receptor)
MHC heavy: GSHSMRYFYTSVSRPGRGEPRFISVGYVDDTQFVRFDSDAASPREEPRAPWIEQEGPEYWDRNTQIYKAQAQTDRESLRNLRGYYNQSEAGSHTLQSMYGCDVGPDGRLLRGHDQYAYDGKDYIALNEDLRSWTAADTAAQITQRKWEAAREAEQRRAYLEGECVEWLRRYLENGKDKLERADPPKTHVTHHPISDHEATLRCWALGFYPAEITLTWQRDGEDQTQDTELVETRPAGDRTFQKWAAVVVPSGEEQRYTCHVQHEGLPKPLTLRWEPSSQSTVPIVGIVAGLAVLAVVVIGAVVAAVMCRRKSSGGKGGSYSQAACSDSAQGSDVSLTAEFGSGSGS
notes: also called HLA-B alone; not shown: triple-FLAG tag
Take B2: the binding result in test [1] and in test [2] was “no binding” each time.

B3: HLA-A (full length, 3× FLAG tagged, expressed in HEK293 cells) (receptor)
MHC heavy: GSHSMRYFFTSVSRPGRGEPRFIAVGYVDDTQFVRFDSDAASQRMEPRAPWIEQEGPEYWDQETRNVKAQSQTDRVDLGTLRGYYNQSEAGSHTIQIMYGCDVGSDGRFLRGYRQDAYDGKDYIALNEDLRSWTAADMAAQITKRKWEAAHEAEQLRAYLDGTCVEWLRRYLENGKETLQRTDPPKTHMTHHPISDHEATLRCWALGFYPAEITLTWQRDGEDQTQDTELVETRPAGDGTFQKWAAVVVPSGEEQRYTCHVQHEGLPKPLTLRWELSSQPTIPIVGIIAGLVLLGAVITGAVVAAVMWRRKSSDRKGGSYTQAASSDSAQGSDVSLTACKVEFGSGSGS
notes: also called HLA-A alone; not shown: triple-FLAG tag
On to B3, for which the binding result in test [1] and in test [2] was “no binding” throughout.
